Literature values as cited in paper PMC4965143.
Like-named read-outs stand apart in the source and are kept apart here.

How the values were obtained:
[1] = target: PGC-1α coactivator peptide (Homo sapiens) (UniProt Q9UBK2)
[2] = target: PGC-1α coactivator peptide (Homo sapiens) (UniProt Q9UBK2); remark: listed apart in the source

Sequence of UniProt Q9UBK2 (Q9UBK2 whole entry): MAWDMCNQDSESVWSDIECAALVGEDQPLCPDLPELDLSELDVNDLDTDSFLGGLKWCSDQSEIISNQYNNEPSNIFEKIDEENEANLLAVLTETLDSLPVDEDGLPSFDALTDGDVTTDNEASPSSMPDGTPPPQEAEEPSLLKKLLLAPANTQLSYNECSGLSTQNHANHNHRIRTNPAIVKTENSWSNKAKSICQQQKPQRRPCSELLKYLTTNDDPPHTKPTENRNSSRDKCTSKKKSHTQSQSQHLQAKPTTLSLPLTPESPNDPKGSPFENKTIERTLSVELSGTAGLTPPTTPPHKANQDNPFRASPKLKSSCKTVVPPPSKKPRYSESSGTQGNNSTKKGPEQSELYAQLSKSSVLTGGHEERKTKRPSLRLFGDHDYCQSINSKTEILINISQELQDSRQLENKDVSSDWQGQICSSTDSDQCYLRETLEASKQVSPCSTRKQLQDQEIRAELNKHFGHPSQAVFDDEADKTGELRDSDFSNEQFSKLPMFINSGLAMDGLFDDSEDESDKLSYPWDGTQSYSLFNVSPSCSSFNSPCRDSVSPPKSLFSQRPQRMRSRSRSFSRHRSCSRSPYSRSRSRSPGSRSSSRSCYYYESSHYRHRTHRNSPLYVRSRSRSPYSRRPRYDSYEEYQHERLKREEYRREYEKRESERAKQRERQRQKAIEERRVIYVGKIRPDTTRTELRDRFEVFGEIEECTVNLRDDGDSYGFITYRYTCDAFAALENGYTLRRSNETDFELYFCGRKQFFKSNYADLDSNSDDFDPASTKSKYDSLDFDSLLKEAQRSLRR

## SF-1 LBD (from UniProt Q13285)
[1]
  Kd: 8.5 µM
[2]
  Kd: 6 µM
